Data from patent publication US20230265201A1 (published 2023).
One block for each molecule: values may come before it.

Assays:
[1] = target: T1, recombinant human CD70 (Flag-TNC-CD70) (human, UniProt P32970 39-193); experiment: CD27-CD70 inhibition ELISA, human Flag-TNC-CD70
T1 construct: extracellular domain; also called recombinant CD70; human Flag-TNC-CD70; not shown: Flag tag and TNC trimerisation domain
T1 sequence (looked up): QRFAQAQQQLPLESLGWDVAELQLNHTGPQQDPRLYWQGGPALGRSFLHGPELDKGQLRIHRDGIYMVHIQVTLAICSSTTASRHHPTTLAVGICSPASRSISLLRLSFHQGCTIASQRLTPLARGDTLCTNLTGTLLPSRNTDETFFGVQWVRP

[2] = target: T1, recombinant human CD70 (Flag-TNC-CD70); experiment: blocking ELISA of Example 19: CD27 Fc chimera on anti-Flag-captured Flag-TNC-CD70
[3] = target: T2, human CD70 on the surface of cells (human, UniProt P32970 1-193); experiment: cell-based or functional assay
T2 sequence (looked up): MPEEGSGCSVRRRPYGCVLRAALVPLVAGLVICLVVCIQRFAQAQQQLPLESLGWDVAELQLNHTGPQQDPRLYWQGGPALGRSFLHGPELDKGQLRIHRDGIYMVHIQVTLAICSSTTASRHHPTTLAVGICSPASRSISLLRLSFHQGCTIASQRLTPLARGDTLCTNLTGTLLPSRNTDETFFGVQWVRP

[4] = target: T3, rhesus recombinant CD70 (FLAG-TNC-rhesus CD70) (rhesus macaque (Macaca mulatta)) (UniProt F7GPA5); experiment: CD27-CD70 inhibition ELISA, rhesus Flag-TNC-CD70
T3 sequence: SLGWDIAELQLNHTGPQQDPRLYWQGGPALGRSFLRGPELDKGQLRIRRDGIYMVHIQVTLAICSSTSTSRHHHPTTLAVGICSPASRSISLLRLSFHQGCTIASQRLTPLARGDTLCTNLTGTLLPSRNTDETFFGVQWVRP

[5] = target: cynomolgus monkey Flag-TNC-CD70 (cynomolgus monkey); experiment: CD27-CD70 inhibition ELISA, cynomolgus Flag-TNC-CD70
[6] = target: T1, recombinant human CD70 (Flag-TNC-CD70); experiment: inhibition ELISA: CD27-Fc binding to anti-Flag-captured Flag-TNC-CD70
Protocol: From selected phage transfected into TG1, individual colonies were picked randomly for growth in 96 well plates. After IPTG induction according to standard protocols periplasmic fractions (peris) containing Fabs were prepared. […] In this assay, Flag-TNC-CD70 is captured by an anti-Flag mAb and binding of CD27-Fc is detected via a biotinylated anti-CD27 mAb and strep-HRP in the absence or presence of CD70 Fabs (FIGS. 2 and 3) or CD70 mAbs (FIG. 4). In FIG. 2B it can be seen that 27B3, which has an identical VH as 9D1, but contains a somewhat different light chain, seems to block binding of CD27 to CD70 more efficiently, which was in line with the better off rate of this Fab as measured on Biacore (data not shown). Table 3 indicates the blocking potency (expressed as IC50) for the various llama-human chimeric mAbs tested in the CD70 inhibition ELISA. […] FIG. 3 is a composite of an experiment testing llama CD70 Fabs for blocking activity (in the inhibition ELISA, see white bars) and for CD70 binding (binding ELISA, black bars). For the binding ELISA, Flag-TNC-CD70 is captured by an anti-Flag mAb and binding of the Fabs is detected using an anti-myc-HRP mAb, which recognizes the MYC tag fused to the C-terminus of the Fd fragment. […]

[7] = target: T4, rhesus recombinant CD70 (FLAG-TNC-rhesus CD70) (rhesus macaque (Macaca mulatta), UniProt F7GPA5 174-316); experiment: inhibition ELISA: CD27 binding to FLAG-TNC-rhesus CD70
T4 construct: also called rhesus Flag-TNC-CD70; Rhesus monkey; not shown: Flag tag and TNC trimerisation domain
T4 sequence: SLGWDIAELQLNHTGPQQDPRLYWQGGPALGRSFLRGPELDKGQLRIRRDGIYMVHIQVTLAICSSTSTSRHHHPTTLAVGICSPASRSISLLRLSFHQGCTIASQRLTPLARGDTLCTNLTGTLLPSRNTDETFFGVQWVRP
From the text: In this assay, Flag-TNC-CD70 is captured by an anti-Flag mAb and binding of CD27-Fc is detected via a biotinylated anti-CD27 mAb and strep-HRP in the absence or presence of CD70 Fabs (FIGS. 2 and 3) or CD70 mAbs (FIG. 4). In FIG. 2B it can be seen that 27B3, which has an identical VH as 9D1, but contains a somewhat different light chain, seems to block binding of CD27 to CD70 more efficiently, which was in line with the better off rate of this Fab as measured on Biacore (data not shown). Table 3 indicates the blocking potency (expressed as IC50) for the various llama-human chimeric mAbs tested in the CD70 inhibition ELISA. […] FIG. 3 is a composite of an experiment testing llama CD70 Fabs for blocking activity (in the inhibition ELISA, see white bars) and for CD70 binding (binding ELISA, black bars). For the binding ELISA, Flag-TNC-CD70 is captured by an anti-Flag mAb and binding of the Fabs is detected using an anti-myc-HRP mAb, which recognizes the MYC tag fused to the C-terminus of the Fd fragment. For comparison purposes, known monoclonal antibodies to CD70 (SGN70 described in US 2010/0129362 A1, clone 1F6; and MDX69A7 described in WO2008/074004FIGS. 5A and 5B) were tested in parallel. […] Of interest is clone 59D10, which as Fab has no blocking activity, but when converted into a chimeric IgG was antagonistic (see Table 3). […]

IC50 [1]: 0.044 µg/mL
IC50 [2]: 5.5 µg/mL
Molecule: MDX1411 mAb (antibody)

IC50 of IL-8 secretion, Raji / HT1080-CD27 co-culture [3]: 55 ng/mL
IC50 [1]: 0.054 µg/mL
IC50 [4]: 0.178 µg/mL
IC50 [5]: 0.112 µg/mL
IC50 [6]: 0.33 µg/mL
IC50 [2]: 4.97 µg/mL
B1: SGN70 mAb (antibody, INN chains, looked up, V domains shown)
VH: QVQLVQSGAEVKKPGASVKVSCKASGYTFTNYGMNWVRQAPGQGLKWMGWINTYTGEPTYADAFKGRVTMTRDTSISTAYMELSRLRSDDTAVYYCARDYGDYGMDYWGQGTTVTVSS
VL: DIVMTQSPDSLAVSLGERATINCRASKSVSTSGYSFMHWYQQKPGQPPKLLIYLASNLESGVPDRFSGSGSGTDFTLTISSLQAEDVAVYYCQHSREVPWTFGQGTKVEIK

IC50 [7]: 0.135 µg/mL
B2: 57B6 chimeric llama-human mAb (antibody, V domains shown)
VH: QLQLVESGGGLVQPGGSLRLSCAASGFSFSHYAMSWVRQAPGKGLEWVSGDNTYDGGTRYQDSVKGRFTISRDNGKNTLYLQMNSLKPEDTAVYYCAKDTGRGIMGEYGMDYWGKGTLVTVSS
VL: QTVVTQEPSLSVSPGGTVTLTCGLKSGSVTSSNYPAWYQQTPGQAPRLLIYNTNSRHSGVPSRFSGSISGNKAALTITGAQPEDEADYYCALYMGSGSANAMFGGGTHLTVLG

Raji co-culture assay IC50 relative to 27B3 [3]: 1.6 fold relative to 27B3
B6: 53H1 mAb (human IgG1, HEK293) (antibody, V domains shown)
VH: EVQLVESGGGLVQPGGSLRLSCAASGFTFSVYYMNWVRQAPGKGLEWVSDINNEGGTTYYADSVKGRFTISRDNSKNSLYLQMNSLRAEDTAVYYCARDAGYSNHVPIFDSWGQGTLVTVSS
VL: QTVVTQEPSFSVSPGGTVTLTCGLKSGSVTSDNFPTWYQQTPGQAPRLLIYNTNTRHSGVPDRFSGSILGNKAALTITGAQADDEAEYFCALFISNPSVEFGGGTQLTVLG

Raji co-culture assay IC50 relative to 27B3 [3]: 0.8 fold relative to 27B3
B7: 53A2 mAb (human IgG1, HEK293) (antibody, V domains shown)
VH: EVQLVESGGGLVQPGGSLRLSCAASGFTFSVYYMNWVRQAPGKGLEWVSDINNEGGTTYYADSVKGRFTISRDNSKNSLYLQMNSLRAEDTAVYYCARDAGYSNHVPIFDSWGQGTLVTVSS
VL: QAVVTQEPSFSVSPGGTVTLTCGLKSGSVTSDNFPTWYQQTPGQAPRLLIYNTNTRHSGVPDRFSGSILGNKAALTITGAQADDEAEYFCALFISNPSVEFGGGTQLTVLG

More lines, now with the values behind:

B3: 27B3 chimeric llama-human mAb (antibody, V domains shown)
VH: EVQLVESGGGLVQPGGSLRLSCAASGFTFSVYYMNWVRQAPGKGLEWVSDINNEGGTTYYADSVKGRFTISRDNAKNTLTLQMNSLKPEDTALYYCVRDAGYSNHVPIFDSWGQGTQVIVAS
VL: QAVVTQEPSLTVSPGGTVTLTCGLKSGSVTSTNFPTWYQQTPGQAPRLLIYNTNTRHSGVPSRFSGSISENKAALTITGAQPEDEAEYFCALFISNPSVEFGGGTQLTVLS
notes: also called SIMPLE antibody 27B3; mAb 27B3
Raji co-culture assay IC50 relative to 27B3 [3]: 1 fold relative to 27B3
IC50 [7]: 0.15 µg/mL

B4: 40F1 mAb (human IgG1, HEK293) (antibody, V domains shown)
VH: EVQLVESGGGLVQPGGSLRLSCAASGFTFSVYYMNWVRQAPGKGLEWVSDINNEGGATYYADSVKGRFTISRDNSKNSLYLQMNSLRAEDTAVYYCARDAGYSNHVPIFDSWGQGTQVTVSS
VL: QAVVTQEPSFSVSPGGTVTLTCGLKSGSVTSDNFPTWYQQTPGQAPRLLIYNTNTRHSGVPDRFSGSILGNKAALTITGAQADDEAEYFCALFISNPSVEFGGGTQLTVLG
Raji co-culture assay IC50 relative to 27B3 [3]: 1.8 fold relative to 27B3

B5: 9D1 chimeric llama-human mAb (antibody, V domains shown)
VH: EVQLVESGGGLVQPGGSLRLSCAASGFTFSVYYMNWVRQAPGKGLEWVSDINNEGGTTYYADSVKGRFTISRDNAKNTLTLQMNSLKPEDTALYYCVRDAGYSNHVPIFDSWGQGTQVIVAS
VL: QAVVTQEPSLSVSPGGTVTLTCGLSSGSVTSSHYPGWYQQTPGQAPRLLIFNTNSRHSGVPSRFSGSISGNKAALTITGAQPEDEADYYCALLNIDDGSTMFGGGTHLTVLG
notes: also called mAb 9D1
fold less potent than 27B3 mAb [6]: 3 fold

B8: 41D12 mAb (human IgG1, HEK293) (antibody, V domains shown)
VH: EVQLVESGGGLVQPGGSLRLSCAASGFTFSVYYMNWVRQAPGKGLEWVSDINNEGGTTYYADSVKGRFTISRDNSKNSLYLQMNSLRAEDTAVYYCARDAGYSNHVPIFDSWGQGTLVTVSS
VL: QAVVTQEPSLTVSPGGTVTLTCGLKSGSVTSDNFPTWYQQTPGQAPRLLIYNTNTRHSGVPDRFSGSILGNKAALTITGAQADDEAEYFCALFISNPSVEFGGGTQLTVLG
Raji co-culture assay IC50 relative to 27B3 [3]: 1.2 fold relative to 27B3

B9: 35G2 mAb (human IgG1, HEK293) (antibody, V domains shown)
VH: EVQLVESGGGLVQPGGSLRLSCAASGFTFSVYYMNWVRQAPGKGLEWVSDINNEGGTTYYADSVKGRFTISRDNAKNTLYLQMNSLKPEDTAVYYCARDAGYSNHVPIFDSWGQGTLVTVSS
VL: QTVVTQEPSFSVSPGGTVTLTCGLKSGSVTSTNFPTWYQQTPGQAPRLLIYNTNSRHSGVPDRFSGSILGNKAALTITGAQADDEADYFCALFISNPSVEFGGGTQLTVLG
Raji co-culture assay IC50 relative to 27B3 [3]: 1.4 fold relative to 27B3
